In publication PMC9598941:

Tests used:
[1] = target: T1, CcpA (catabolite control protein A) (Staphylococcus aureus XN108 (clinical isolate)?) (UniProt P99175); assay: EMSA
T1 sequence: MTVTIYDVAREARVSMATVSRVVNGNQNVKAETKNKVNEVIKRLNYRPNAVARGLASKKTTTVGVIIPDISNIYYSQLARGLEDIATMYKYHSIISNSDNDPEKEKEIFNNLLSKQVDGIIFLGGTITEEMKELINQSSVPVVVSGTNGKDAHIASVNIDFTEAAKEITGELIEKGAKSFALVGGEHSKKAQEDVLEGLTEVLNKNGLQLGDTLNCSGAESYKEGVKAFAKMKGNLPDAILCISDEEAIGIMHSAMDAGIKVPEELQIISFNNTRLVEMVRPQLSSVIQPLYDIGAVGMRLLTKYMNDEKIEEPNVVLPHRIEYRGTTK

[2] = target: T1, CcpA (catabolite control protein A) (Staphylococcus aureus XN108 (clinical isolate)?); assay: competition

## GGCGCTTCCTCCAAATATAATATATTTGTTTTTATTTATCTCTTTTTATAGCTAACACCCTTATTTAAGATGATAAATATCAACAACTTCATTTTATATTGAGAAAATATTAAAAATCAATAAAATATTAAAAGAAACTAAACTTACATTAAAAAATAATTAACAAATATTTAACATTTTAACCTAAGAA (double strand) [Psak]
[1]
  binding: binds
[2]
  binding: binds
